Measurements from US20020197702A1.

How the values were obtained:
Test in all cases: cell-based or functional assay
[1] = target: r-caspase-3 (His)6 (human) (UniProt P42574)
[2] = target: affinity purified membrane derived caspase-3 from 697 cell heavy membranes (human) (UniProt P42574)
[3] = target: T1, 697-neo HM (caspase-1 treated) caspase (human) (UniProt P42574)
T1 sequence 1: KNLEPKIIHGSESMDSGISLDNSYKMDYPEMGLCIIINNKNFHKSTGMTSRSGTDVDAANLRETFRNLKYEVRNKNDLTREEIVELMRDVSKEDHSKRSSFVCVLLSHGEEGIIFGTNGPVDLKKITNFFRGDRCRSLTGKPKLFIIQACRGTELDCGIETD
T1 sequence 2: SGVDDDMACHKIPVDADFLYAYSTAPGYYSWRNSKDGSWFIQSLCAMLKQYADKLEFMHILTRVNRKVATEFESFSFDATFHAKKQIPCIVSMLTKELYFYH

[4] = target: T2, 697 Bcl-2 HM (caspase-1 treated) caspase (human) (UniProt P42574)
T2 sequence 1: T1 sequence 1
T2 sequence 2: T1 sequence 2

[5] = target: 697-neo HM (spontaneous activity) caspase (human) (UniProt P42574)

Protein p35 (early p35 protein from Autographa californica nuclear polyhedrosis virus) (from UniProt P08160 1-299)
IC50, inhibition of DEVD-AMC cleavage activity [1]: 0.041 nM | IC50, inhibition of DEVD-AMC cleavage activity [2]: 0.074 nM

YVAD-ald (peptide)
IC50, inhibition of DEVD-amc cleavage [3]: > 10000 nM | IC50, inhibition of DEVD-amc cleavage [4]: > 10000 nM | IC50, inhibition of DEVD-amc cleavage [5]: > 10000 nM
